Data from the supplement of paper PMC10567573.
± gives the standard deviation.

Experiment: protein stability index of a GFP-peptide fusion (GPS, HEK-293T) (PSI 1-6); higher = more stable
[1] = treatment: DMSO, c terminus: a fixed tail appended
[2] = treatment: MLN4924 1 uM, 8 h, c terminus: a fixed tail appended
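Further: 24-mer peptide tiles fused after GFP, lentivirally expressed, FACS-sorted into six equal bins by GFP/DsRed ratio, decoded by Illumina sequencing, PSI is the read-weighted mean bin number.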

Sequence | protein stability index [1] | protein stability index [2] | protein stability index (treatment: DMSO, c terminus: native) | protein stability index (treatment: MLN4924 1 uM, 8 h, c terminus: native)
RLWSLSYTKLPSSLQSTGKCLLYC [SLC25A39] | 2.78 ± 0.62 | 2.73 ± 0.52 | – | –
KALQMLLSQPVTYQAFRECTLETT [BCL2L13] | 3.24 ± 0.35 | 2.79 ± 0.42 | – | –
PSTVGAEAQEEFLRVLGSMCQRLR [DFFB] | 2.28 ± 0.34 | 2.2 ± 0.32 | – | –
QLLWREFFYTAATNNPRFDKMEGN [CRY1] | 2.02 ± 0.23 | 2 ± 0.38 | – | –
HPGFKDNVYRKRRKYFADLAMNYK [TPH1] | 2.61 ± 0.23 | 3.01 ± 0.48 | – | –
DMENKENGSVGVKNSMENGRPPDP [SAMD13] | 5.11 ± 0.27 | 5.15 ± 0.32 | – | –
WICQRSTVASMMHRQETVDCLKKF [CAMK2D] | 2.67 ± 0.15 | 2.43 ± 0.64 | – | –
AEGRVVGRKDITSILRAPAYPLEL [MOSPD3] | 3.27 ± 0.19 | 3.33 ± 0.18 | – | –
QFANLVLHQTVERIHVGKKYGDIP [LSM1] | 2.13 ± 0.22 | 2.09 ± 0.23 | – | –
DSIKTEVSGCPEDLTVGRAPTADD [NOL4L] | 5.63 ± 0.34 | 5.68 ± 0.15 | – | –
KLPRKVLQHVSEPQAHQESTRGAA [SPACA9] | 4.59 ± 0.13 | 4.76 ± 0.17 | – | –
TYRIRIEMSKDALPEKACQLDSRY [FBXO3] | 2.37 ± 0.12 | 2.57 ± 0.35 | – | –
NQLSQAELDELASKAPVLTYGQPK [EFHC1] | 4.78 ± 0.11 | 4.79 ± 0.072 | – | –
SNVRWDHESVCKYYLCGFCPAELF [LUC7L3] | 2.25 ± 0.37 | 2.29 ± 0.34 | – | –
RIKGVEVFCPLDPPPPYEAVVSQM [FAM189A2] | 2.83 ± 0.33 | 2.88 ± 0.22 | – | –
KTHSQELMKESLQTGDLLSTFHTI [PLAGL1] | 3.49 ± 0.27 | 3.64 ± 0.23 | – | –
MKGRGQLEKPPAPNQAMVVAAAGD [TBC1D10A] | 5 ± 0.26 | 4.94 ± 0.49 | – | –
EISAYRKLLQGEEERLKLSPSPSS [LMNB1] | 3.78 ± 0.37 | 4.16 ± 0.61 | – | –
PNIPKAKSLDGVTNDRTASQGQWG [DHCR7] | 4.65 ± 0.29 | 4.84 ± 0.29 | – | –
ARFVSSGSGGGYGGGMRVCGFGGG [KRT15] | 2.63 ± 0.31 | 2.74 ± 0.25 | – | –
SKLCTSYSHSSTRDGRRDRYSSDT [GOSR1] | 4.32 ± 0.25 | 4.18 ± 0.16 | – | –
HYFPVMKKCCIPETRRRMEMAFNT [NLN] | 2.35 ± 0.43 | 1.84 ± 0.27 | – | –
GSRAGASSFSDPFFVVETLCIIWF [KCNA3] | 3.04 ± 0.93 | 2.53 ± 0.75 | – | –

Sequence | protein stability index [1] | protein stability index [2] | protein stability index (treatment: DMSO, c terminus: native) | protein stability index (treatment: MLN4924 1 uM, 8 h, c terminus: native)
KKIYEAKRFTDAGFEHYDLFFIDG [CDC14A] | 2.36 ± 0.29 | 2.34 ± 0.23 | – | –
EDDALSDKHGCPAYVSPEILNTTG [TRIB1] | 4.97 ± 0.24 | 4.95 ± 0.072 | – | –
CQEEQLRSHENKLRQLTAELAEHR [PSD2] | 4.41 ± 0.25 | 4.34 ± 0.16 | – | –
LRRFVVRTMCAVLGLVARQEDSGL [AUP1] | 2.17 ± 0.71 | 1.91 ± 0.095 | – | –
TGEASENGLEDIDRILERIEDSTG [TCF25] | 5.47 ± 0.074 | 5.46 ± 0.29 | – | –
YLVENNANISIANKYDNTCLMIAA [FEM1B] | 2.38 ± 0.1 | 2.21 ± 0.22 | – | –
NQGTQITVEDLFYNIATRRKALKN [MLH1] | 3.29 ± 0.32 | 3.37 ± 0.48 | – | –
DQNNVIENEETGEFSIDNYPTDNT [MIA2] | 5.21 ± 0.74 | 5.5 ± 0.17 | – | –
GSRLAEFGAAGVNRLSIGLQSLDD [RSAD1] | 4.22 ± 0.48 | 4.09 ± 0.34 | – | –
GDRLNVEVDAAPPVDLNKILEDMR [KRT36] | 4.24 ± 0.4 | 4.323 ± 0.035 | – | –
TVARPVFTEYQASAFGNVKLVVHD [RHOBTB3] | 3.06 ± 0.33 | 3.17 ± 0.23 | – | –
VLSILHATLPGIFMLLLIFFAFLH [SOAT2] | 2.87 ± 0.32 | 3.17 ± 0.41 | – | –
EPGPRPALQPSPSIRLPLDAPLPG [TBC1D10A] | 4.97 ± 0.28 | 5.06 ± 0.26 | – | –
SKPSIQPKPLLLPAAPKTQTISSI [ATF6] | 3.88 ± 0.32 | 3.82 ± 0.31 | – | –
EDKENYKKFYEAFSKNLKLGIHED [HSP90AB1] | 4.08 ± 0.34 | 4.22 ± 0.25 | – | –
SGGITHDTFQKELMCFDPDTDKWI [KLHL13] | 3.94 ± 0.16 | 4.17 ± 0.25 | – | –
LKPHLEGAAFRDHQLLEPIRDFEA [TRIM29] | 3.88 ± 0.31 | 4.26 ± 0.25 | – | –
AVAFMPEDITKGTQSLPTASASKF [AUP1] | 4.22 ± 0.18 | 4.3 ± 0.16 | – | –
QSRGVPAVSESYSAPGACEEPTER [FBXO34] | 5.49 ± 0.18 | 5.49 ± 0.18 | – | –
EDSLGCLTADTKEVTASQEARGLR [IRX6] | 5.34 ± 0.25 | 5.3 ± 0.27 | – | –
TMDNKKGRRYEAVKWMVVFAIGVC [CLCN6] | 2.58 ± 0.35 | 2.64 ± 0.82 | – | –
PNKGLLSDSMTDVPVDTGVAARTP [TPD52L2] | 4.9 ± 0.17 | 4.93 ± 0.16 | – | –
PAHRFVLAAGSAVFDAMFNGGMAT [BTBD1] | 2.49 ± 0.85 | 2.24 ± 0.55 | – | –

Sequence | protein stability index [1] | protein stability index [2] | protein stability index (treatment: DMSO, c terminus: native) | protein stability index (treatment: MLN4924 1 uM, 8 h, c terminus: native)
LLSDGSNTLSVSYKKGRMMKDISN [SLC6A17] | 3.03 ± 0.27 | 3.35 ± 0.31 | – | –
EAELRRRDTFYKEQLERIERKNAE [CHCHD6] | 5.1 ± 0.41 | 5.34 ± 0.28 | – | –
IQHRRTHTDSKYEHAIAEAQKNMY [ZNF396] | 3.78 ± 0.27 | 3.96 ± 0.21 | – | –
ASKMESTIKPRRVEPVCSGLQAQI [CHCHD6] | 3.47 ± 0.17 | 3.6 ± 0.24 | – | –
LQTSLENGTRVQEEPELVFTLGDC [FKBP8] | 4.34 ± 0.2 | 4.77 ± 0.25 | – | –
VFEYCDHTLLNELERNPNGVADGV [CDKL4] | 3.89 ± 0.57 | 4.03 ± 0.55 | – | –
EIARREKELEARVRKPAEAERYKL [FLOT1] | 4.4 ± 0.1 | 4.45 ± 0.22 | – | –
FFVITMIKIVLINSFGAILQGSLF [SLC29A1] | 3.36 ± 0.093 | 2.99 ± 0.12 | – | –
SYQDWQQNLYFNCSSPGVQACSLP [TSPAN10] | 2.32 ± 0.28 | 2.62 ± 0.2 | – | –
SAAGHLDVVRSLLRRGASVNRTTR [FEM1A] | 3.5 ± 0.33 | 3.75 ± 0.33 | – | –
DPACYEFLWGPRALIETSYVKVLH [MAGEA6] | 2.26 ± 0.78 | 2.21 ± 0.22 | – | –
VKLGPALTPHIVQYQANKVTHTLT [PPEF2] | 2.35 ± 0.34 | 2.2 ± 0.42 | – | –
VDNISTLDSEIKKNSDGMEAAGVQ [CD207] | 5.4 ± 0.37 | 5.49 ± 0.23 | – | –
SALTLACYKGHLEMVRFLLEAGAD [ANKRD17] | 3.08 ± 0.31 | 2.69 ± 0.24 | – | –
FSPDGPSRFRKAYKPEQPLVRLRG [LOXL2] | 2.5 ± 0.58 | 3.39 ± 0.68 | – | –
WMQVASLNEKRTFFHLSALKGYLY [KLHL13] | 2.76 ± 0.57 | 2.58 ± 0.36 | – | –
VCESMKEQLLVLVEWAKYIPAFCE [HNF4A] | 2.51 ± 0.38 | 2.34 ± 0.38 | – | –
MTMIVSLAAVAWVGQQVHNLLLTY [ARL6IP1] | 3.31 ± 0.37 | 3.25 ± 0.32 | – | –
QLQPTFTPMRVALAGTFHYYSCER [NSDHL] | 2.18 ± 0.24 | 2.26 ± 0.044 | – | –
RSRLRPRDDLDRLGVFLDYEAGVL [TRIM14] | 2.47 ± 0.4 | 2.59 ± 0.48 | – | –
EVHRLIEGKAPIISGVTKAISSPT [TPPP] | 3.42 ± 0.18 | 3.84 ± 0.28 | – | –
NVLHGYPKDIYSSFGFPRTVKHID [MMP1] | 2.63 ± 0.098 | 2.74 ± 0.24 | – | –
GAGLLSSISELKHALSGHAKVKPF [TPH1] | 2.86 ± 0.095 | 3.02 ± 0.12 | – | –

Sequence | protein stability index [1] | protein stability index [2] | protein stability index (treatment: DMSO, c terminus: native) | protein stability index (treatment: MLN4924 1 uM, 8 h, c terminus: native)
ISHQGDYAVLAAEPELQVGIDIMK [AASDHPPT] | 3.42 ± 0.21 | 3.52 ± 0.3 | – | –
ERLVAQFPSSGRFWKLYIEAEVTI [CSTF3] | 2.93 ± 0.61 | 2.71 ± 0.38 | – | –
VEIVKSDFHKPFLGGFRHKVTGVE [IQUB] | 2.17 ± 0.23 | 2.5 ± 0.39 | – | –
RLEPLEHRRRTICGTPNYLSPEVL [PLK2] | 3.55 ± 0.19 | 3.67 ± 0.1 | – | –
FLMRKCGWFVRELRVEFAAENYLS [FBXO33] | 3.06 ± 0.59 | 2.8 ± 0.35 | – | –
AESSVPPVTSIGIDNLGLKLEENL [SLC35F2] | 4.97 ± 0.2 | 5.13 ± 0.13 | – | –
KKTGKSSTTALGDKQRKANESKGT [ELOA2] | 5.26 ± 0.36 | 5.22 ± 0.17 | – | –
PEPEDEPGGPGAMTESLEASEFLE [RSPH3] | 5.7 ± 0.12 | 5.48 ± 0.2 | – | –
NDYIVPRHCPELAEMSRVSIRILD [HNF4A] | 3.08 ± 0.19 | 3.29 ± 0.24 | – | –
TPTPFFHTFAGDDCQAGLNFADED [WAS] | 4.86 ± 0.25 | 5 ± 0.07 | – | –
TQGLPWRFEELLTCSHWPSFFPS [TEX19] | – | – | 2.78 ± 0.46 | 2.24 ± 0.87
SEADSEAGELRKPTQEEWRQVVDI [PPEF2] | 5.45 ± 0.15 | 5.46 ± 0.34 | – | –
DVNKTDHSQRTALHLAAQKALRTI [INVS] | 3.06 ± 0.42 | 3.44 ± 0.43 | – | –
EVRKLTQRLEEMTQRMEALENRLR [MATN2] | 2.57 ± 0.39 | 2.91 ± 0.4 | – | –
FAPQTGARPSETFARFCKSQESAL [DNAAF3] | 2.5 ± 0.45 | 2.76 ± 0.52 | – | –
ASSSPVTLRQKTVDWRRVSRLQED [SLA] | 3.9 ± 0.36 | 3.77 ± 0.32 | – | –
GGSSTSERCLLNNSLWKKNKTICK [NLN] | 3.44 ± 0.16 | 3.47 ± 0.33 | – | –
HSDMAAIVKAMASPESGLEVRDRM [DVL3] | 3.81 ± 0.23 | 3.81 ± 0.03 | – | –
SRAALVCRKWNQMMYSAELWRYRT [FBXO39] | 2.45 ± 0.56 | 2.15 ± 0.25 | – | –
GTYSQALNDAKRELRFLLVYLHGD [FAF2] | 2.41 ± 0.47 | 2.16 ± 0.32 | – | –
